Laboratory results from paper PMC12533369, “Citrullination of AKT2 Catalyzed by PAD1 Facilitates the Maintenance of Stemness Characteristics of Ovarian Cancer Stem‐Like Cells in Ovarian Cancer” (Advanced Science, 2025).

T1: GST-tagged PAD1 (human, UniProt Q9ULC6 1-663)
T1 construct: peptidylarginine deiminase 1 (PAD1), recombinant human; also called GST-PAD1; recombinant human PAD1; source: recombinant
T1 sequence (looked up): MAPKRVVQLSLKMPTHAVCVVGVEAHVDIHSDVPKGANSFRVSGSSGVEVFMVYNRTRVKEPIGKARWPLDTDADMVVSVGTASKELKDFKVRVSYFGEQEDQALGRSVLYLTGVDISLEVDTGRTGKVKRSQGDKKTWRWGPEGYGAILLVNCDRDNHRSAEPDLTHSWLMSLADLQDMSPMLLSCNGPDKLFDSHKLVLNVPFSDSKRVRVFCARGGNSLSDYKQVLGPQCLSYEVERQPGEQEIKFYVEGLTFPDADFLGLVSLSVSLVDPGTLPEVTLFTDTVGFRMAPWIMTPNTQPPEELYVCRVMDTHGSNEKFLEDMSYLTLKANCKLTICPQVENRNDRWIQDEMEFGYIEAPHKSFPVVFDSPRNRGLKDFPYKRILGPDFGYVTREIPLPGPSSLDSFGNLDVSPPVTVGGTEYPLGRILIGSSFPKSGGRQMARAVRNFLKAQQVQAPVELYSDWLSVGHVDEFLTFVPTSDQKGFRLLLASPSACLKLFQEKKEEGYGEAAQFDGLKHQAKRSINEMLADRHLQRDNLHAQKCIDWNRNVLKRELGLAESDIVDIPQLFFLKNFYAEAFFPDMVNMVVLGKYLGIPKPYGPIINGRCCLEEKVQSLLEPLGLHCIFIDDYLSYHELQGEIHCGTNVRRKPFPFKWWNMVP


Target: T1, GST-tagged PAD1
Test: pull-down; GST pull-down: purified His-tagged AKT2 (full length or truncated) incubated with GST-tagged PAD1 or GST alone
Conditions: both partners purified

binding result	Binder
binds	His-tagged full-length AKT2 (enzyme, UniProt P31751 1-481, looked up, AKT2, full length; whether 'human' also covers AKT2 is not clear; also called His-AKT2 (full length); source: purified) MNEVSVIKEGWLHKRGEYIKTWRPRYFLLKSDGSFIGYKERPEAPDQTLPPLNNFSVAECQLMKTERPRPNTFVIRCLQWTTVIERTFHVDSPDEREEWMRAIQMVANSLKQRAPGEDPMDYKCGSPSDSSTTEEMEVAVSKARAKVTMNDFDYLKLLGKGTFGKVILVREKATGRYYAMKILRKEVIIAKDEVAHTVTESRVLQNTRHPFLTALKYAFQTHDRLCFVMEYANGGELFFHLSRERVFTEERARFYGAEIVSALEYLHSRDVVYRDIKLENLMLDKDGHIKITDFGLCKEGISDGATMKTFCGTPEYLAPEVLEDNDYGRAVDWWGLGVVMYEMMCGRLPFYNQDHERLFELILMEEIRFPRTLSPEAKSLLAGLLKKDPKQRLGGGPSDAKEVMEHRFFLSINWQDVVQKKLLPPFKPQVTSEVDTRYFDDEFTAQSITITPPDRYDSLGLLELDQRTHFPQFSYSASIRE
binds	His-AKT2 (kinase domain) (domain or fragment, UniProt P31751 152-481, looked up, AKT2 residues 152-481, the truncated variant that the text calls the kinase domain; also called His-tagged AKT2 (152–481 aa); source: purified) FDYLKLLGKGTFGKVILVREKATGRYYAMKILRKEVIIAKDEVAHTVTESRVLQNTRHPFLTALKYAFQTHDRLCFVMEYANGGELFFHLSRERVFTEERARFYGAEIVSALEYLHSRDVVYRDIKLENLMLDKDGHIKITDFGLCKEGISDGATMKTFCGTPEYLAPEVLEDNDYGRAVDWWGLGVVMYEMMCGRLPFYNQDHERLFELILMEEIRFPRTLSPEAKSLLAGLLKKDPKQRLGGGPSDAKEVMEHRFFLSINWQDVVQKKLLPPFKPQVTSEVDTRYFDDEFTAQSITITPPDRYDSLGLLELDQRTHFPQFSYSASIRE
